B1: soluble BTN3A1 ectodomain (IgV-IgC), homodimer (ligand)
chain: not shown
notes: C-terminal biotin ligase (AviTag) and His6 tags; Analyte or immobilised ligand in SPR; streptavidin-PE tetramer in flow cytometry; also called BTN3A1 ectodomain homodimer; full-length BTN3A1 ectodomain

Key:
[1] = molecular target: T1, BTN2A1 ectodomain homodimer, disulfide-linked (C-terminal Cys247, acidic or basic leucine zipper) (human, UniProt Q7KYR7 29-248; Q7KYR7 29-248); assay: SPR, equilibrium; disulfide-linked BTN2A1 homodimer immobilised, soluble BTN3A1 ectodomain injected
T1 construct: Biotinylated and immobilised on a streptavidin chip in SPR; also called immobilized BTN2A1 homodimer; immobilised BTN2A1 ectodomain homodimer; not shown: linker and acidic leucine zipper; linker and basic leucine zipper
T1 sequence 1: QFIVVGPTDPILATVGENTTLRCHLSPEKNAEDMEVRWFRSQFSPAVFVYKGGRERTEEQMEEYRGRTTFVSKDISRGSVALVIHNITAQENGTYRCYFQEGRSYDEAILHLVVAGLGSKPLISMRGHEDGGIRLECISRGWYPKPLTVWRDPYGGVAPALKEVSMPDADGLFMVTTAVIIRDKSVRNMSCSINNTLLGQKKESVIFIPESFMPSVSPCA
T1 sequence 2: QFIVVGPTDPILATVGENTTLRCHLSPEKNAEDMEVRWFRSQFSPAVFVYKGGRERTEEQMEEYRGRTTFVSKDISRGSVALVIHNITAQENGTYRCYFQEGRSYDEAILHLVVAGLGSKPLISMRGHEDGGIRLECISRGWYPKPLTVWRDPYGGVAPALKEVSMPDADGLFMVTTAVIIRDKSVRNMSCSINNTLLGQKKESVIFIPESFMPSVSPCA

[2] = molecular target: B1; assay: SPR, equilibrium; BTN3A1 homodimer immobilised, soluble monomeric BTN2A1 ectodomain injected
Description: (§1) SPR experiments were conducted at 25° C. on a Biacore T200 instrument (GE Healthcare) using 10 mM HEPES-HCl (pH 7.4), 150 mM NaCl, 3 mM EDTA, and 0.05% Tween 20 buffer. Biotinylated BTN ectodomains were immobilized to 1,500-2,000 resonance units (RU) on a Biacore sensor chip SA pre-immobilized with streptavidin. Soluble BTN molecules or G115 γδTCR were two-fold serially diluted and simultaneously injected over test and control surfaces at a rate of 30 μl/min. After subtraction of data from the control flow cell (BTN1A1) and blank injections, interactions were analyzed using Biacore T200 evaluation software (GE Healthcare), Scrubber (Biologic) and Prism version 9 (GraphPad), and equilibrium dissociation constants were derived at equilibrium.

[3] = molecular target: T1, BTN2A1 ectodomain homodimer, …; assay: SPR; BTN2A1 ectodomain homodimer immobilised, soluble BTN2A1 ectodomain injected
Description: as §1

[4] = molecular target: T1, BTN2A1 ectodomain homodimer, …; assay: SPR, equilibrium; BTN2A1 homodimer immobilised, soluble BTN3A1 IgV domain injected
Description: as §1

[5] = molecular target: B1; assay: SPR, soluble monomeric BTN3A1 IgV domain over immobilised BTN3A1 homodimer
Description: SPR experiments were conducted at 25° C. on a Biacore T200 instrument (GE Healthcare) using 10 mM HEPES-HCl (pH 7.4), 150 mM NaCl, 3 mM EDTA, and 0.05% Tween 20 buffer. Biotinylated BTN ectodomains were immobilized to 1,500-2,000 resonance units (RU) on a Biacore sensor chip SA pre-immobilized with streptavidin. Soluble BTN molecules or G115 γδTCR were two-fold serially diluted and simultaneously injected over test and control surfaces at a rate of 30 μl/min.

B1
Kd [1]: 500 µM

B2: soluble BTN2A1 ectodomain lacking Cys247 (monomeric) (ligand)
chain: QFIVVGPTDPILATVGENTTLRCHLSPEKNAEDMEVRWFRSQFSPAVFVYKGGRERTEEQMEEYRGRTTFVSKDISRGSVALVIHNITAQENGTYRCYFQEGRSYDEAILHLVVAGLGSKPLISMRGHEDGGIRLECISRGWYPKPLTVWRDPYGGVAPALKEVSMPDADGLFMVTTAVIIRDKSVRNMSCSINNTLLGQKKESVIFIPESFMPSVSP
notes: C-terminal biotin ligase (AviTag) and His6 tags; Used as SPR analyte and in crystals; also called monomeric BTN2A1 ectodomain; full-length BTN2A1 ectodomain
Kd [2]: ~1800 µM
binding result [3]: no binding

B3: monomeric BTN3A1 IgV domain (ligand)
chain: not shown
Kd [4]: 1100 µM
binding result [5]: no binding (tested: 1,590 µM)

Reference: patent US20250179144A1 (UNIVERSITY OF MELBOURNE, published 2025)
